B1: SiaT19: sialyltransferase of Photobacterium leiognathi JT-SHIZ-145, acc. BAF91416, SEQ ID NO: 30 (protein, listed as Photobacterium leiognathi)
chain: MNDNQNTVDVVVSTVNDNVIENNTYQVKPIDTPTTFDSYSWIQTCGTPILKDDEKYSLSFDFVAPELDQDEKFCFEFTGDVDGKRYVTQTNLTVVAPTLEVYVDHASLPSLQQLMKIIQQKNEYSQNERFISWGRIRLTEDNAEKLNAHIYPLAGNNTSQELVDAVIDYADSKNRLNLELNTNTGHSFRNIAPILRATSSKNNILISNINLYDDGSAEYVSLYNWKDTDNKSQKLSDSFLVLKDYLNGISSEKPNGIYSIYNWHQLYHSSYYFLRKDYLTVETKLHDLREYLGGSLKQMSWDTFSQLSKGDKELFLNIVGFDQEKLQQEYQQSELPNFVFTGTTTWAGGETKEYYAQQQVNVVNNAINETSPYYLGREHDLFFKGHPRGGIINDIILGSFNNMIDIPAKVSFEVLMMTGMLPDTVGGIASSLYFSIPAEKVSFIVFTSSDTITDREDALKSPLVQVMMTLGIVKEKDVLFWC
B2: SiaT9: sialyltransferase of Vibrio sp. JT-FAJ-16, acc. BAF91160, SEQ ID NO: 2 (protein, listed as Vibrio sp.)
chain: MNNDNSTTTNNNAIEIYVDRATLPTIQQMTKIVSQKTSNKKLISWSRYPITDKSLLKKINAEFFKEQFELTESLKNIILSENIDNLIIHGNTLWSIDVVDIIKEVNLLGKNIPIELHFYDDGSAEYVRIYEFSKLPESEQKYKTSLSKNNIKFSIDGTDSFKNTIENIYGFSQLYPTTYHMLRADIFDTTLKINPLRELLSNNIKQMKWDYFKDFNYKQKDIFYSLTNFNPKEIQEDFNKNSNKNFIFIGSNSATATAEEQINIISEAKKENSSIITNSISDYDLFFKGHPSATFNEQIINAHDMIEINNKIPFEALIMTGILPDAVGGMGSSVFFSIPKEVKNKFVFYKSGTDIENNSLIQVMLKLNLINRDNIKLISDI

Assay: In vivo screening in E. coli #1363/#1730 with lactose as acceptor, sialyllactose identified by TLC
Format: cell-based, Escherichia coli BL21(DE3)
Details: 1.5 mM lactose, 72 to 96 hours, qualitative via TLC
Method in brief: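 E. coli BL21(DE3) #1363/#1730 expressing sialyltransferases were grown at 30 °C in mineral salts medium with 2% glucose and induced with 0.3 mM IPTG. After 1 h, 1.5 mM lactose was added, plus 1.5 mM sialic acid for #1730, and incubation ran 72–96 h. Cell lysates were analysed by silica TLC with thymol staining.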

Molecule | Production of sialyllactose in-vivo
B1 | 6′-SL
B2 | 3′-SL

— patent publication US12692524B2, “Sialyltransferases and their use in producing sialylated oligosaccharides” (Chr. Hansen A/S, priority 2017, dated 2026)
